Results as given in paper PMC10126157, “High concentrations of soluble endoglin can inhibit BMP9 signaling in non-endothelial cells” (Scientific Reports, 2023).

Molecular target: T1, sENG-Fc (soluble endoglin Fc fusion) (human, UniProt P17813 26-586)
T1 construct: soluble endoglin (ENG, CD105) fused to Fc, recombinant human protein from R&D Systems; Construct limits are known only through the catalogue number; source: bought: R&D Systems (Cat.# 6578-EN), recombinant human protein
T1 sequence (looked up): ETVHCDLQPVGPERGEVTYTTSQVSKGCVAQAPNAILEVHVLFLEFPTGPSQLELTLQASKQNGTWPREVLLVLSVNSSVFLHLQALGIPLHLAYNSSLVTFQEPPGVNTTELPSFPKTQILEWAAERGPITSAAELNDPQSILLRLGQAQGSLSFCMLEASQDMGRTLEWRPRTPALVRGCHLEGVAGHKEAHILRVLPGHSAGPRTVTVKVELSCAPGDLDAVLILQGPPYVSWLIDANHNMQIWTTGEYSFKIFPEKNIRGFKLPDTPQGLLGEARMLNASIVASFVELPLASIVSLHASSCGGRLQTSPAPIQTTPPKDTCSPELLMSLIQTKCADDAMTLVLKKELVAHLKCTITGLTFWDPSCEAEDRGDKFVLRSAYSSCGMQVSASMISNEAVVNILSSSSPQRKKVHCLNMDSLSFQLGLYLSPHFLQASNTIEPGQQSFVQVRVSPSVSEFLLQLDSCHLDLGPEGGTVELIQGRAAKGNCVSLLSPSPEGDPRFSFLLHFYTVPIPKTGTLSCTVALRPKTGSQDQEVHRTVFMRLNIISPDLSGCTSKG
Experiment: ELISA; ActRIIA-Fc coated on MaxiSorp plates (1 ug/mL in PBS, overnight, 4 °C), blocked with 1% BSA; BMP9 (15 ng/mL) added with increasing concentrations of sENG(M), sENG(D) or sENG-Fc; bound BMP9 detected with BMP-9 DuoSet ELISA reagents
Details: both partners purified

B1: Bone morphogenetic protein 9 (BMP9) (ligand, human, UniProt Q9UK05 320-429, looked up)
chain: SAGAGSHCQKTSLRVNFEDIGWDSWIIAPKEYEAYECKGGCFFPLADDVTPTKHAIVQTLVHLKFPTKVGKACCVPTKLSPISVLYKDDMGVPTLKYHYEGMSVAECGCR
notes: BMP9 (GDF2), recombinant human protein from R&D Systems; source: bought: R&D Systems (Cat.# 3209-BP), recombinant human protein
B1: binds.
